assay: soluble on expression in E. coli; label from the status in PepcDB or PDB records

Sequence	soluble on expression in E. coli
SEQETRGANEAIDFNDELRNRREKLAALRQQGVAFPNDFRRDHTSDQLHEEFDAKDNQELESLNIEVSVAGRMMTRRIMGKASFVTLQDVGGRIQLYVARDSLPEGVYNDQFKKWDLGDIIGARGTLFKTQTGELSIHCTELRLLTKALRPLPDKFHGLQDQEVRYRQRYLDLIANDKSRQTFVVRSKILAAIRQFMVARGFMEVETPMMQVIPGGASARPFITHHNALDLDMYLRIAPELYLKRLVVGGFERVFEINRNFRNEGISVRHNPEFTMMELYMAYADYHDLIELTESLFRTLAQEVLGTTKVTYGEHVFDFGKPFEKLTMREAIKKYRPETDMADLDNFDAAKALAESIGITVEKSWGLGRIVTEIFDEVAEAHLIQPTFITEYPAEVSPLARRNDVNPEITDRFEFFIGGREIGNGFSELNDAEDQAERFQEQVNAKAAGDDEAMFYDEDYVTALEYGLPPTAGLGIGIDRMIMLFTNSHTIRDVILFPAMRPQK	soluble
SESDSEMVPFPQLPMPIENNYRACTIPYRFPSDDPKKATPNEISWINVFANSIPSFKKRAESDITVPDAPARAEKFAERYAGILEDLKKDPESHGGPPDGILLCRLREQVLRELGFRDIFKKVKDEENAKAISLFPQVVSLSDAIEDDGKRLENLVRGIFAGNIFDLGSAQLAEVFSRDGMSFLASCQNLVPRPWVIDDLENFQAKWINKSWKKAVIFVDNSGADIILGILPFARELLRRGAQVVLAANELPSINDITCTELTEILSQLKDENGQLLGVDTSKLLIANSGNDLPVIDLSRVSQELAYLSSDADLVIVEGMGRGIETNLYAQFKCDSLKIGMVKHLEVAEFLGGRLYDCVFKFNEVQS	soluble
SESKKRELFSQIKDLKGTSGNVALLELGCGTGANFQFYPQGCKVTCVDPNPNFEKFLTKSMAENRHLQYERFIVAYGENMKQLADSSMDVVVCTLVLCSVQSPRKVLQEVQRVLRPGGLLFFWEHVAEPQGSRAFLWQRVLEPTWKHIGDGCHLTRETWKDIERAQFSEVQLEWQPPPFRWLPVGPHIMGKAVK	soluble
SEWLKSTDYGKYEGLTKNYMDYLSRLYEREIKDFFEVAKIKMTGTTKESKKFGLHGSSGKLTGSTSSLNKLSVQSSGNRRSQSSSLLDMGNMSASDLDVADRTKFDKIFEQVLSELEPLCLAEQDFISKFFKLQQHQSMPGTMAEAEDLDGGTLSRQHNCGTPLPVSSEKDMIRQMMIKIFRCIEPELNNLIALGDKIDSFNSLYMLVKMSHHVWTAQNVDPASFLSTTLGNVLVTVKRNFDKCISNQIRQMEEVKISKKSKVGILPFVAEFEEFAGLAESIFKNAERRGDLDKAYTKLIRGVFVNVEKVANESQKTPRDVVMMENFHHIFATLSRLKISCLEAEKKEAKQKYTDHLQSYVIYSLGQPLEKLNHFFEGVEARVAQGIREEEVSYQLAFNKQELRKVIKEYPGKEVKKGLDNLYKKVDKHLCEEENLLQVVWHSMQDEFIRQYKHFEGLIARCYPGSGVTMEFTIQDILDYCSSIAQSH	soluble
SFPNRRIVTTVFNDEGIQFLVTRYIKALNPPQQLLDIFLHNSNATFDLIARFVSLIPFVPNTPDENDGSDIWMTSEHCISLAIGNKEEHAILLCNFFLYFGKKALVLLGTSVLEGHVAYVVTQETNEYLLWNPSTGQCYKQFDPFCPLKSVDCLFDDRNVWFNIQQNNTPMAVFFDYSKESFWKQLLPKNVQGTKIQSIQVTGFPIQMPYIDVQSIIDAVYQTGIHSAEFPQTEFALAVYIHPYPNNILSVWVYLASLVQHQ	soluble
SFVPSQKTYQGNYGFHLGFLQSGTAKSVMCTYSPPLNKLFCQLAKTCPVQLWVSATPPAGSRVRAMAIYKKSQHMTEVVRRCPHHERCSDGDGLAPPQHLIRVEGNLYPEYLEDRQTFRHSVVVPYEPPEAGSEYTTIHYKYMCNSSCMGGMNRRPILTIITLEDSSGNLLGRDSFEVRVCACPGRDRRTEEENFRKKEVL	soluble
SGDAASHEERMNNYRKRVGRLFMEQKAAQPDAVKLPSGLVFQRIARGSGKRAPAIDDKCEVHYTGRLRDGTVFDSSRERGKPTTFRPNEVIKGWTEALQLMREGDRWRLFIPYDLAYGVTGGGGMIPPYSPLEFDVELISIKDGGKGRTAEEVDEILRKAEEDREDM	soluble
SGDPNSRKKQALNRLRAQLRKKKESLADQFDFKMYIAFVFKEKKKKSALFEVSEVIPVMTNNYEENILKGVRDSSYSLESSLELLQKDVVQLHAPRYQSMRRDVIGCTQEMDFILWPRNDIEKIVCLLFSRWKESDEPFRPVQAKFEFHHGDYEKQFLHVLSRKDKTGIVVNNPNQSVFLFIDRQHLQTPKNKATIFKLCSICLYLPQEQLTHWAVGTIEDHLRPYMPE	soluble
SGEKSENCGVPEDLLNGLKVTDTQEAECAGPPVPDPKNQHSQSKLLRDDEAHLQEDQGEEECFHDCSASFEEEPGADKVENKSNEDVNSSELDEEYLIELKKNMSDEEKQKRREESTRLKEEGNEQFKKGDYIEAESSYSRALEMCPSCFQKERSILFSNRAAARMKQDKKEMAINDCSKAIQLNPSYIRAILRRAELYEKTDKLDEALEDYKSILEKDPSIHQAREACMRLPKQIEERNERLKEEMLGKLKDLGNLVLRPFGLSTENFQIKQDSSTGSYSINFVQNPNNNR	soluble
SGGRRWNWVQSWPVWKYFKEYFPICLVKTQDLDPGHNYIFGFHPHGIFVPGAFGNFCTKYSDFKKLFPGFTSYLHVAKIWFCFPLFREYLMSNGPVSVSKESLSHVLSKDGGGNVSIIVLGGAKEALEAHPGTFTLCIRQRKGFVKMALTHGASLVPVFSFGENDLYKQINNPKGSWLRTIQDAMYDSMGVALPLIYARGIFQHYFGIMPYRKLIYTVVGRPIPVQQILNPTSEQIEELHQTYLEELKKLFNEHKGKYGIPEHETLVFK	soluble
SGIVPQLQNIVSTVNLGCKLDLKTIALRARNAEYNPKRFAAVIMRIREPRTTALIFSSGKMVCTGAKSEEQSRLAARKYARVVQKLGFPAKFLDFKIQNMVGSCDVKFPIRLEGLVLTHQQFSSYEPELFPGLIYRMIKPRIVLLIFVSGKVVLTGAKVRAEIYEAFENIYPILKGFRKTT	soluble
SGNTSSERSGGEKTHRRESRSGKDGTRPKILMDSAEDGDLFQSDDAKEFLAWRQDQESDSKTPLEERPTVFRWKGPGKEIYLSGSFNNWATKIPLNKSHNNFVAIIDLPEGEHQYKFYVDGHWTLDPKEPVVTNKSGVVNNVIKVRKTDFEVFDALKTDSEKCADMSDLSSSPPGPYHQDPYSTKSEDKLRSPPILPPHLLQVLLNKDTGISCDPTLLPEPNHVMLNHLYALSIKDGVMVLSATHRYKKKYVTTLLYKPI	soluble
SGSELIGRLAPRLGLAEPDMLRKAEEYLRLSRVKCVGLSARTTETSSAVMCLDLAASWMKCPLDRAYLIKLSGLNKETYQSCLKSFECLLGLNSNIGIRDLAVQFSCIEAVNMASKILKSYESSLPQTQQVDLDLSRPLFTSAALLSACKILKLKVDKNKMVATSGVKKAIFDRLCKQLEKIGQQVDREPGDVATPPRKRKKIVVEAPAKEMEKVEEMPHKPQKDEDLTQDYEEWKRKILENAASAQKATAE	soluble
SHEWYAEKPFMLRSFLDRTVLQQAFESPETLTSLGFLESIGITGHNAELDDDRPEKTDALFAEMKKVKETLLTYDDSDLDESQLLSKEIAMYLLDILLVSEPYRYHNYPVNQLFGIQNGYPSFMDAQHQVNSVGDAENYIARLNKVKVKFSQNLEGLKLREEKGILPPRFVIDRVLEEMTAFVAKPAEENILYSSLKAKLSDAEDISPAEQTRLLNLAKEEIIASVHPAYQLLIDYFNQVADKSTTDDGIWKLPDGDKVYAQALKFFTTTDYSAGEIHNIGLHEVDRIQLDILTILEKENYDVSQGFTAAIETLAAQDEFYYPDTKAGREQILTDYQTILDEINAGLESAFRIRPKASMKVRRIPEFKEKTAPGAYYQQPSIDGSRPGMFFANLYDIKATPKYSMRTLAYHEGIPGHHFQIAIAMELEGMPLFRRISPFTAYTEGWALYTERLAWDLGFQDDPFDNIGRLQAELFRAVRLVVDTGIHHKRWTRQEAIDYMVANTGMAHSDVVSEIERYIVMPGQATSYKIGLMKILELRKKAKASLGDKFDLRDFHDVVLKNGAVPLDILTRLVDQYIADKSS	not soluble
SITSTVLPPVYNQQNEDTCIIRISVEDNNGNMYKSIMLTSQDKTPAVIQRAMSKHNLESDPAEEYELVQVISEDKELVIPDSANVFYAMNSQVNFDFILRKKN	soluble
SKEGSVAPKERINIKYIPATGDAQAEVELPLKTLVVGDFKGHAEQTPLEERATVTVDKNNFEAVMRESELKITATVKNKLTDDENAELPVELNFKSLADFAPDAVASQVPELKKLIELREALVALKGPLGNIPAFRERLQSLLNSEESREKLLAELNLL	not soluble
SKEHQAVSLEAARQSLVLLKNETNLLPLSKSIRSIAVIGPNANEQTQLICRYGPANAPIKTVYQGIKELLPHTEVIYKKGCDIIDPHFPESEILDFPKTAEEVQLMEEAIRAAKQAEVVVMVLGGNELTVREDRSRTSLNLPGRQEELLKAVCATGKPIILVMLDGRASSINYAAAHIPAILHAWFPGEFCGQAVAEALFGDYNPGGRLAVTFPKSVGQIPFAFPFKPGSDESSSTSVYGALYPFGHGLSYTTF	not soluble
SKFIAKQSVGAEVIDTPRTEEEAWLLNTVEAQARQWNLKTPEVAIYHSPEPNAFATGASRNSSLIAVSTGLLDHMTRDEVEAVLAHEMAHVGNGDM	not soluble
SKGRPQIDSSKATDKINPMDFTFVEINEAVKLVEMGVATPQDIDTAIKLGLNRPFGPFELAKQFGAEQIAKRLEELAKQFGKKIFEPAKTLKEGKLEELLKAGKAE	soluble
SKQDASRNAAYTVDCEDYVHVVEFNPFENGDSGNLIAYGGNNYVVIGTCTFQEEEADVEGIQYKTLRTFHHGVRVDGIAWSPETRLDSLPPVIKFCTSAADMKIRLFTSDLQDKNEYKVLEGHTDFINGLVFDPKEGQEIASVSDDHTCRIWNLEGVQTAHFVLHSPGMSVCWHPEETFKLMVAEKNGTIRFYDLLAQQAILSLESEQVPLMSAHWCLKNTFKVGAVAGNDWLIWDITRSSYPQNKRPVHMDRACLFRWSTISENLFATTGYPGKMASQFQIHHLGHPQPILMGSVAVGSGLSWHRTLPLCVIGGDHKLLFWVTEV	soluble
SKTNPRLSSLIADLKSAARSSGGAVWGDVAERLEKPRRTHAEVNLGRIERYAQEDETVVVPGKVLGSGVLQKDVTVAAVDFSGTAETKIDQVGEAVSLEQAIENNPEGSHVRVIR	soluble
SLAAVQVVGSWPSVQPREAPREAIPERGNGFRLLSARLCALRPDDSSSARTEIHLLFDQLISENYSEGSGVAPEDVSALLVQACRLVPLNQNHLVSKVSQLIHHLLNRLQVIVDEQHLDFLLAYTISAIHQCSSWTHREILQALAALVYCNGSKCQKYLPELLGNTGLLMKLSDLAQSDPEVRRAAVHCMANLCLSVPGQPYLEEPYQNVCFQAFLTILQSPKSSDMDDITFCMLLQNALKGIQSLLNGGRMKLTQTDELGALLAVLKKFMFHGLPGLNIEMPTVLYPTPLPQYDGRTPIK	soluble
SLADYYQVQLNMMPPVNLTVLDHCVENYSWNQMMEQAKLYADMFGFHKYWSVDEDDISTGFTALRSIVMSSSNGQIKMPINEPVKSIMKGQIEEFNDFNGGPGIQHIAFRTNNIIETVMALMQRGVEFNHTSENYYNNLKQRLNNDGIKLYEDFDTLRSLNILIDYDPSEG	not soluble

Reference: the DeepSol protein solubility set
